Experimental data taken from patent publication US20230331862A1 (SHANGHAI GENBASE BIOTECHNOLOGY, published 2023).

Tests used:
[1] = target: T1, CEACAM5 (CD66e) on tumour cells (human, UniProt P06731 35-685, glycosylated (natural, as on tumour cells)); assay: flow cytometry on Lovo monoclonal clone 8-1, fluorescent secondary antibody
T1 construct: whole, on cells; One molecule for CEACAM5 on all three cell lines; the cell line is named under assay; also called natural CEACAM5 antigen; Lovo cells
T1 sequence (looked up): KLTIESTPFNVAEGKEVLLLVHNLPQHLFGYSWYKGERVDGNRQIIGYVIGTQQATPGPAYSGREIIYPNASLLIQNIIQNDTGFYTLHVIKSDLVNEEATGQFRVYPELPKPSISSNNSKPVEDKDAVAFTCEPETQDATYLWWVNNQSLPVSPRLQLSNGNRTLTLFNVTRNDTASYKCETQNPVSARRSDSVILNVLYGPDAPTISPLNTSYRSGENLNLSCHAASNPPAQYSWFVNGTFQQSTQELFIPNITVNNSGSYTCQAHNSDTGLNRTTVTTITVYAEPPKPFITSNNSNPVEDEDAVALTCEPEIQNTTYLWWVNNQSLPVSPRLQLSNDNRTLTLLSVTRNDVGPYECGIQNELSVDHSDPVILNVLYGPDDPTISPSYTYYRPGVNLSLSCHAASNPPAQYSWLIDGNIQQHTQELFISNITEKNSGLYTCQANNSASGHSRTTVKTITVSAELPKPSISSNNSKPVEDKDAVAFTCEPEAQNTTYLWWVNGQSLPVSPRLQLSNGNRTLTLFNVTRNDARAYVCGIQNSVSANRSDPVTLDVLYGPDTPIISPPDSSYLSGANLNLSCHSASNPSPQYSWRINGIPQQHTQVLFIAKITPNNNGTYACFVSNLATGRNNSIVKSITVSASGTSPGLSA
Description: (§1) After labeling, anti-mouse Fc-PE fluorescence-labeled secondary antibody was added, sorted into 96-well plate by BD FACS Aria, after monoclonal culture was carried out, MN14 was used to detect the expression of monoclonal CEACAM5, and the results were as follows: […]

[2] = target: T1, CEACAM5 (CD66e) on tumour cells; assay: flow cytometry on Lovo monoclonal clone 7-1, fluorescent secondary antibody
Description: as §1

[3] = target: T1, CEACAM5 (CD66e) on tumour cells; assay: flow cytometry on Lovo monoclonal clone 7-2, fluorescent secondary antibody
Description: as §1

[4] = target: T1, CEACAM5 (CD66e) on tumour cells; assay: flow cytometry on Lovo monoclonal clone 1-2, fluorescent secondary antibody
Description: as §1

[5] = target: T1, CEACAM5 (CD66e) on tumour cells; assay: flow cytometry on Lovo monoclonal clone 3-2, fluorescent secondary antibody
Description: as §1

[6] = target: T1, CEACAM5 (CD66e) on tumour cells; assay: flow cytometry on Lovo monoclonal clone 5-2, fluorescent secondary antibody
Description: as §1

[7] = target: T1, CEACAM5 (CD66e) on tumour cells; assay: flow cytometry on Lovo monoclonal clone 6-1, fluorescent secondary antibody
Description: as §1

[8] = target: T1, CEACAM5 (CD66e) on tumour cells; assay: flow cytometry on Lovo monoclonal clone 6-2, fluorescent secondary antibody
Description: as §1

[9] = target: T1, CEACAM5 (CD66e) on tumour cells; assay: flow cytometry on Lovo monoclonal clone 4-2, fluorescent secondary antibody
Description: as §1

[10] = target: T1, CEACAM5 (CD66e) on tumour cells; assay: flow cytometry on Lovo monoclonal clone 1-1, fluorescent secondary antibody
Description: as §1

[11] = target: T1, CEACAM5 (CD66e) on tumour cells; assay: flow cytometry on Lovo monoclonal clone 5-1, fluorescent secondary antibody
Description: as §1

[12] = target: T1, CEACAM5 (CD66e) on tumour cells; assay: flow cytometry on Lovo monoclonal clone 2-1, fluorescent secondary antibody
Description: as §1

[13] = target: T1, CEACAM5 (CD66e) on tumour cells; assay: flow cytometry on Lovo monoclonal clone 8-2, fluorescent secondary antibody
Description: as §1

[14] = target: T1, CEACAM5 (CD66e) on tumour cells; assay: flow cytometry on Lovo monoclonal clone 2-2, fluorescent secondary antibody
Description: as §1

[15] = target: T1, CEACAM5 (CD66e) on tumour cells; assay: flow cytometry on Lovo monoclonal clone 3-1, fluorescent secondary antibody
Description: as §1

[16] = target: T1, CEACAM5 (CD66e) on tumour cells; assay: flow cytometry on Lovo monoclonal clone 4-1, fluorescent secondary antibody
Description: as §1

B1: anti-CEACAM5 antibody hMN14 (antibody, human IgG1, kappa, V domains shown)
VH: EVQLVESGGGVVQPGRSLRLSCSASGFDFTTYWMSWVRQAPGKGLEWIGEIHPDSSTINYAPSLKDRFTISRDNAKNTLFLQMDSLRPEDTGVYFCASLYFGFPWFAYWGQGTPVTVSS
VL: DIQLTQSPSSLSASVGDRVTITCKASQDVGTSVAWYQQKPGKAPKLLIYWTSTRHTGVPSRFSGSGSGTDFTFTISSLQPEDIATYYCQQYSLYRSFGQGTKVEIKR
notes: T0002 prints whole heavy and light chains under the labels 'hMN14 VH' and 'hMN14 VL'
CEACAM5 positive ratio, % [1]: 97.9% | CEACAM5 positive ratio, % [2]: 93.9% | CEACAM5 positive ratio, % [3]: 96.9% | CEACAM5 positive ratio, % [4]: 95.6% | CEACAM5 positive ratio, % [5]: 95.9% | CEACAM5 positive ratio, % [6]: 96.9% | CEACAM5 positive ratio, % [7]: 98.6% | CEACAM5 positive ratio, % [8]: 88.1% | CEACAM5 positive ratio, % [9]: 82.7% | CEACAM5 positive ratio, % [10]: 90.5% | CEACAM5 positive ratio, % [11]: 76.6% | CEACAM5 positive ratio, % [12]: 95.6% | CEACAM5 positive ratio, % [13]: 96.8% | CEACAM5 positive ratio, % [14]: 96.4% | CEACAM5 positive ratio, % [15]: 97.8% | CEACAM5 positive ratio, % [16]: 93.7%
